Laboratory results reported in the PETadex activity labels.

B1: unnamed (protein)
chain: MSMTASAYALAQSSPYAKGPDPTTSSLEAATGSFSTRTTTVSRLSASGFGGGTIYYPTASGSYGAIAISPGFTAYQSSISWLGTRLASRGFVVITIDTITTSDQPDSRGRQLKAALDKVVSLSRTAGNVLYGKVDANRLAVAGHSMGGGGTLAAARDNPSLKAAVPLAPWHTTKFFSTIRVPTLIIGGESDTIAPVASHSIPFYTSSLSSIAKGYMELNNASHFFPQTSTYYPLVGKYMISWFKRFVDEDTRYSPFLCGAPHQSDVANFLRVSDYRENCPY
B2: unnamed (protein)
chain: MNFPRASRLMQAAVLGGLMAVSAAATAQTNPYARGPNPTAASLEASAGPFTVRSFTVSRPSGYGAGTVYYPTNAGGTVGAIAIVPGYTARQSSIKWWGPRLASHGFVVITIDTNSTLDQPSSRSSQQMAALRQVASLNGTSSSPIYGKVDTARMGVMGHSMGGGGSLISAANNPSLKAAAPQAPWDSSTNFSSVTVPTLIFACENDSIAPVNSSALPIYDSMSRNAKQFLEINGGSHFCANSGNSNQALIGKKGVAWMKRFMDNDTRYSTFACENPNSTRVSDFRTANCS

What follows are proteins tested on BHET (assay: Proxy for plastic degradation [Released monomer concentration (HPLC/LC-MS) (BHET)]). Conditions: pH 7.

Row | Protein | Proxy for plastic degradation [%]
1 | B1 | 1

What follows are proteins tested on BHET (assay: not given). Conditions: 50 °C; part of the chain shown.

Row | Protein | Km [µM] | kcat [s⁻¹] | kcat/Km [M⁻¹ s⁻¹]
2 | B2 | 1610 | 540 | 335000
